Measured values published in article PMC3268813.

Legend:
[1] = biological target: synthetic phospho-S463 CRN2 coiled coil peptide (human) (UniProt Q9ULV4); assay: small-angle X-ray scattering
[2] = biological target: synthetic phospho-S463 CRN2 coiled coil peptide (human) (UniProt Q9ULV4); assay: SEC-MALS

stoichiometry N [1]: 3 | stoichiometry N [2]: 3
Substance: synthetic phospho-S463 CRN2 coiled coil peptide (from UniProt Q9ULV4 435-474)
